Test results: the supplement of paper PMC6757056
± gives the standard deviation of the averaged measurements.

B1: library; a variant is named by its letters at N, in order (parent)
chain: GCUGUCACCGGAAUACCAGCAUCGUCUUGAUGCCCUUGGAAGUCCGGUCUGAUGAGUCCNNNNNGGACGAAACAGC

Key:
theophylline [1] = variants of: B1; assay: FACS-Seq fitted mean relative fluorescence mCherry/BFP without ligand (log10 relative fluorescence); higher = higher reporter protein expression; conditions: HEK293T, ligand present: no
Method: (§1)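 Hammerhead (sTRSV) ribozyme switch libraries with a ligand aptamer grafted on stem I and a randomized N4-6 loop II, cloned into the 3' UTR of mCherry and transiently transfected into HEK293T cells; RNA-Seq 72 h post transfection with ligand added 1 h before transfection; RNA read count / plasmid DNA read count normalized to the non-cleaving sTRSVctl (x100), log10; sequences with >100 DNA reads. FACS-Seq: lentiviral library sorted into 6 bins after 48 h ligand, log-normal fit mean of mCherry/BFP scaled to controls. Printed sequences are partial switch sequences.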

theophylline [2] = variants of: B1; assay: normalized RNA/DNA level with ligand (relative to sTRSVctl = 100) (log10 (% of sTRSVctl)); higher = less ribozyme self-cleavage, higher mRNA level; conditions: ligand concentration (+) RNA-Seq: 5 mM, HEK293T, reporter: mCherry (pCS4076), ligand present: yes
Method: as §1

theophylline [3] = variants of: B1; assay: normalized RNA/DNA level without ligand (relative to sTRSVctl = 100) (log10 (% of sTRSVctl)); higher = less ribozyme self-cleavage, higher mRNA level; conditions: HEK293T, reporter: mCherry (pCS4076), ligand present: no
Method: as §1

theophylline [4] = variants of: B1; assay: FACS-Seq fitted mean relative fluorescence mCherry/BFP with ligand (log10 relative fluorescence); ligand concentration (+) FACS-Seq: 1 mM; higher = higher reporter protein expression; conditions: HEK293T, ligand present: yes
Method: as §1

Variant	FACS-Seq fitted mean (log10) (theophylline [1])	normalized RNA/DNA level with ligand (log10) (theophylline [2])	normalized RNA/DNA level without ligand (log10) (theophylline [3])	FACS-Seq fitted mean (log10) (theophylline [4])
CACUC	1 ± 0.12	2 ± 0.11	1.98 ± 0.096	0.969 ± 0.1
CACUU	0.741 ± 0.014	2 ± 0.028	1.756 ± 0.0024	1.028 ± 0.0013
CACUA	0.228 ± 0.023	1.99 ± 0.058	1.44 ± 0.063	0.437 ± 0.048
GAUAU	0.781 ± 0.093	1.946 ± 0.0078	1.75 ± 0.039	0.8102 ± 0.0061
UAAGG	0.645 ± 0.086	2.1 ± 0.067	1.89 ± 0.041	0.739 ± 0.044
UAAGC	1.08 ± 0.011	1.94 ± 0.059	1.92 ± 0.1	1.04 ± 0.073
UAAGU	0.651 ± 0.24	2.03 ± 0.044	1.86 ± 0.088	0.751 ± 0.013
UAAGA	-0.11 ± 0.071	1.9752 ± 0.00034	1.48 ± 0.16	0.22 ± 0.072
GAGCC	0.935 ± 0.11	1.953 ± 0.015	1.849 ± 0.013	0.918 ± 0.019
GAGCG	0.793 ± 0.054	1.94 ± 0.066	1.79 ± 0.033	0.81 ± 0.05
GAGCU	0.479 ± 0.21	1.96 ± 0.14	1.8 ± 0.11	0.5269 ± 0.0042
UAAUA	0.553 ± 0.011	2.03 ± 0.11	1.56 ± 0.15	0.868 ± 0.015
UAAUC	0.913 ± 0.018	1.9 ± 0.047	1.94 ± 0.098	0.9083 ± 0.0059
UAAUU	0.64 ± 0.039	2 ± 0.023	1.84 ± 0.062	0.613 ± 0.056
UAAUG	0.816 ± 0.076	1.929 ± 0.0084	1.814 ± 0.0095	0.887 ± 0.071
UAGAU	0.687 ± 0.045	2.02 ± 0.036	1.8244 ± 0.0014	0.828 ± 0.09
UAGAC	0.814 ± 0.036	1.91 ± 0.03	1.91 ± 0.09	0.723 ± 0.008
UAGAG	0.823 ± 0.13	1.94 ± 0.063	1.73 ± 0.093	0.842 ± 0.013
UAGAA	-0.0982 ± 0.13	1.91 ± 0.11	1.43 ± 0.016	0.448 ± 0.028
GAAUC	0.7173 ± 0.0037	1.962 ± 0.011	1.855 ± 0.015	0.683 ± 0.059
GAAUA	1.08 ± 0.19	1.85 ± 0.068	1.627 ± 0.0033	0.942 ± 0.085
GAAUG	0.627 ± 0.023	1.9 ± 0.028	1.6 ± 0.093	0.713 ± 0.037
GAAUU	0.234 ± 0.038	2.02 ± 0.045	1.75 ± 0.018	0.4307 ± 0.002
GAGUU	0.55 ± 0.013	1.89 ± 0.025	1.6731 ± 0.00032	0.742 ± 0.063

Variant	FACS-Seq fitted mean (log10) (theophylline [1])	normalized RNA/DNA level with ligand (log10) (theophylline [2])	normalized RNA/DNA level without ligand (log10) (theophylline [3])	FACS-Seq fitted mean (log10) (theophylline [4])
CAUAA	-0.291 ± 0.12	1.88 ± 0.0023	1.06 ± 0.47	0.446 ± 0.011
CAUAU	0.397 ± 0.059	2.02 ± 0.043	1.76 ± 0.21	0.362 ± 0.069
CAUAC	0.865 ± 0.024	1.917 ± 0.0021	1.8 ± 0.092	0.996 ± 0.019
AAGCG	0.683 ± 0.068	2 ± 0.075	1.96 ± 0.067	0.7793 ± 0.0014
AAGCU	0.983 ± 0.1	2.05 ± 0.094	1.78 ± 0.077	1.11 ± 0.11
AAGCC	0.748 ± 0.02	2.03 ± 0.089	2.01 ± 0.071	0.7196 ± 0.0051
AAGCA	0.538 ± 0.016	2.03 ± 0.051	1.8 ± 0.033	0.682 ± 0.023
GAGAA	0.48 ± 0.017	1.91 ± 0.15	1.41 ± 0.11	0.7667 ± 0.00081
GAGAU	0.787 ± 0.038	1.97 ± 0.038	1.73 ± 0.074	0.958 ± 0.062
GAGGG	0.948 ± 0.031	1.91 ± 0.22	1.67 ± 0.03	1.07 ± 0.07
GAACU	0.973 ± 0.11	2.033 ± 0.0061	1.83 ± 0.12	0.975 ± 0.024
CAACU	0.64 ± 0.013	1.98 ± 0.048	1.73 ± 0.17	0.815 ± 0.097
UACUC	0.1 ± 0.14	2.1 ± 0.021	2.02 ± 0.039	0.351 ± 0.022
UACUU	0.59 ± 0.079	2.01 ± 0.023	1.9 ± 0.041	0.754 ± 0.026
UACUA	0.959 ± 0.069	1.97 ± 0.11	1.67 ± 0.042	1.05 ± 0.071
UACUG	0.382 ± 0.044	1.9807 ± 0.00035	1.94 ± 0.04	0.421 ± 0.12
UAUAA	0.194 ± 0.045	2.02 ± 0.052	1.47 ± 0.088	0.511 ± 0.038
UAUAG	0.9651 ± 0.0015	1.95 ± 0.053	1.855 ± 0.015	0.896 ± 0.067
UAUAC	0.747 ± 0.029	2.06 ± 0.027	1.98 ± 0.088	0.749 ± 0.0085
CAGAC	0.2 ± 0.032	2.04 ± 0.028	1.9 ± 0.086	0.0728 ± 0.14
CAGAU	0.809 ± 0.1	2 ± 0.035	1.6 ± 0.25	1.05 ± 0.037
CAGAA	0.0186 ± 0.078	1.95 ± 0.054	1.2 ± 0.22	0.681 ± 0.037
UAACU	0.803 ± 0.036	2 ± 0.14	1.89 ± 0.02	0.716 ± 0.1
CACCA	0.7294 ± 0.00094	1.97 ± 0.083	1.8 ± 0.071	0.792 ± 0.053

Variant	FACS-Seq fitted mean (log10) (theophylline [1])	normalized RNA/DNA level with ligand (log10) (theophylline [2])	normalized RNA/DNA level without ligand (log10) (theophylline [3])	FACS-Seq fitted mean (log10) (theophylline [4])
CACCC	0.8 ± 0.07	1.92 ± 0.06	1.93 ± 0.024	0.762 ± 0.018
CACCU	0.774 ± 0.091	2.06 ± 0.075	1.78 ± 0.097	0.9241 ± 4.2e-05
UACCA	0.405 ± 0.01	1.9 ± 0.086	1.82 ± 0.098	0.436 ± 0.11
UACCU	-0.0361 ± 0.0029	1.988 ± 0.00013	1.99 ± 0.099	0.0166 ± 0.074
UACCC	0.622 ± 0.13	2.02 ± 0.026	2.04 ± 0.048	0.599 ± 0.045
UACCG	1.2 ± 0.1	2.01 ± 0.067	2 ± 0.032	1.09 ± 0.086
AAGAG	0.563 ± 0.11	1.97 ± 0.099	1.67 ± 0.089	0.728 ± 0.02
AAGAA	0.0676 ± 0.046	1.94 ± 0.04	1.36 ± 0.025	0.545 ± 0.015
AAGAC	0.968 ± 0.16	1.91 ± 0.06	1.86 ± 0.14	0.922 ± 0.12
AAGAU	0.919 ± 0.085	1.97 ± 0.06	1.69 ± 0.052	1.06 ± 0.11
UAGUC	0.521 ± 0.015	1.925 ± 0.01	1.88 ± 0.067	0.4472 ± 0.0043
UAGUA	0.245 ± 0.011	1.87 ± 0.019	1.45 ± 0.074	0.503 ± 0.008
AAUAG	0.929 ± 0.015	1.965 ± 0.015	1.85 ± 0.039	0.894 ± 0.16
AAUAC	0.997 ± 0.065	1.95 ± 0.045	1.85 ± 0.084	1.061 ± 0.0058
AAUAU	-0.0622 ± 0.051	1.99 ± 0.083	1.75 ± 0.024	0.253 ± 0.077
AAUAA	-0.00162 ± 0.092	1.88 ± 0.051	1.33 ± 0.021	0.509 ± 0.039
UAGCA	0.6175 ± 0.0054	1.95 ± 0.052	1.55 ± 0.091	0.757 ± 0.046
UAGCU	1.23 ± 0.19	2.01 ± 0.048	1.93 ± 0.068	1.14 ± 0.05
UAGCG	1.09 ± 0.18	1.94 ± 0.066	1.9 ± 0.019	1.08 ± 0.016
AAGUU	0.341 ± 0.057	1.939 ± 0.0073	1.75 ± 0.073	0.39 ± 0.035
AAGUC	0.771 ± 0.032	1.96 ± 0.045	1.91 ± 0.1	0.866 ± 0.079
AAGUA	0.448 ± 0.1	2 ± 0.064	1.63 ± 0.12	0.35 ± 0.062
AAGUG	0.678 ± 0.085	1.96 ± 0.04	1.79 ± 0.074	0.763 ± 0.076
